In paper PMC5885141 (Molecular imaging and biology : MIB : the official …, 2014):
Where two headings read alike, the source gives them in different places. IR800 = IRDye800CW

Legend:
[1] = target: T1, gastrin-releasing peptide receptor (human, UniProt P30550 1-384); assay: radioligand binding
[2] = target: T1, gastrin-releasing peptide receptor; assay: radioligand binding; remark: listed apart in the source

T1 sequence (P30550 whole entry): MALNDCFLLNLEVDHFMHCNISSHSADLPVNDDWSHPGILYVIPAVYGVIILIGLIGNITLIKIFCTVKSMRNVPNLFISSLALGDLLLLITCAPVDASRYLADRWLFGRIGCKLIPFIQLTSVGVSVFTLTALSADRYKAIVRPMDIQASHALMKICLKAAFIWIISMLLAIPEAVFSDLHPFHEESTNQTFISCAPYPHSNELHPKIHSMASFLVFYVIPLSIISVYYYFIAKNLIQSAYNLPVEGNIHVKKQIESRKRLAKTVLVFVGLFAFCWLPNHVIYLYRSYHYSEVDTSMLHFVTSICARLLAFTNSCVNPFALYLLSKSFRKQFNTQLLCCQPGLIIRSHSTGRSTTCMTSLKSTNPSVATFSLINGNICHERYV

B1: IR800-GSG-t-BBN (peptide)
peptide: IR800-GSGQWAVGHLM-NH2
In the case of B1, the IC50 [1] is reported as 56 nM and the IC50 [2] is reported as 57.4 nM.
